Biological target: T1, His6-tagged STAT3, bacterially derived (UniProt P40763 1-770)
T1 construct: also called His6-STAT3; His6-St3; source: E. coli BL21(DE3), purified (Ni-NTA, eluted with imidazole)
Assay: pull-down
Settings: both partners purified

T1 sequence (P40763 whole entry): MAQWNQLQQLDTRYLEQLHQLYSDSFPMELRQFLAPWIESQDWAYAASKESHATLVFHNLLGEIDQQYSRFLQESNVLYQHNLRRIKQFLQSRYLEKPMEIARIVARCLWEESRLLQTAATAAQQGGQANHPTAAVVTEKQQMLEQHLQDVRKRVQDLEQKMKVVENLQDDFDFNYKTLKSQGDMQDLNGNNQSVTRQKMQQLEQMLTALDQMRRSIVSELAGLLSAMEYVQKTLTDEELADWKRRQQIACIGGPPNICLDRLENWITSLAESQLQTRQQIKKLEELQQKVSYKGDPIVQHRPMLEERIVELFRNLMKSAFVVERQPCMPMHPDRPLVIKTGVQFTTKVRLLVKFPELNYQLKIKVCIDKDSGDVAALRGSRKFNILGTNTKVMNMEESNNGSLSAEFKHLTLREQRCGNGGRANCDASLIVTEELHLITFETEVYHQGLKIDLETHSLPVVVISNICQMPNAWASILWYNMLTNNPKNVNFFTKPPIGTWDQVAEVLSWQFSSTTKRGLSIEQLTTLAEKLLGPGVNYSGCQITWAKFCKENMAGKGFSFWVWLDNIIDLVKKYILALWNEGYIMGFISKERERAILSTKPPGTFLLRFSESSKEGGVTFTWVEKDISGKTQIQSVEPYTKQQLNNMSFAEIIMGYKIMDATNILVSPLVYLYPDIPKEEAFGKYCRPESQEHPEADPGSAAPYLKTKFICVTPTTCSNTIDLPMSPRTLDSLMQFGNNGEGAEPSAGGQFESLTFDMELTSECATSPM

B1: GST-tagged vIRF-1, bacterially derived (natural protein)
chain: MDPGQRPNPFGAPGAIPKKPCLSQGSPGTSGSGAPCDEPSRSESPGEGPSGTGGSAAAGDITRQAVVAAITEWSRTRQLRISTGASEGKASIKDWIVCQVNSGKFPGVEWEDEERTRFRIPVTPLADPCFEWRRDGELGVVYIRERGNMPVDASFKGTRGRRRMLAALRRTRGLQEIGKGISQDGHHFLVFRVRKPEEEQCVECGVVAGAVHDFNNMARLLQEGFFSPGQCLPGEIVTPVPSCTTAEGQEAVIDWGRLFIRMYYNGEQVHELLTTSQSGCRISSALRRDPAVHYCAVGSPGQVWLPNVPNLACEIAKRELCDTLDACAKGILLTSSCNGIFCVCYHNGPVHFIGNTVPPDSGPLLLPQGKPTRIFNPNTFLVGLANSPLPAPSHVTCPLVKLWLGKPVAVGKLEPHAPSPRDFAARCSNFSDACVVLEIMPKPLWDAMQ
notes: also called GST-fused vIRF-1; vIRF-1-GST
**Q.** Does B1 bind?
**A.** binds

From paper PMC10695398 (PLOS Pathogens, 2023)
